Each block holds one binder with its values, some of them ahead of it.
Legend:
Test in all cases: flow cytometry on cells; T cells stably expressing the IL13-based CARs titrated with recombinant biotinylated receptor (IL13Rα1-Fc, IL13Rα2-Fc or mouse IL13Rα1); dose-response curves, three independent trials
[1] = biological target: IL13 WT CAR (IL13 - IgG4(EQ)-Fc linker - CD28 transmembrane and costimulatory domain - CD3ζ) on T cells
[2] = biological target: IL13 E12Y CAR (IL13 E12Y - IgG4(EQ)-Fc linker - CD28 transmembrane and costimulatory domain - CD3ζ) on T cells
[3] = biological target: IL13 D7 CAR (IL13 D7 - IgG4(EQ)-Fc linker - CD28 transmembrane and costimulatory domain - CD3ζ) on T cells
[4] = biological target: IL13 C4 CAR (IL13 C4 - IgG4(EQ)-Fc linker - CD28 transmembrane and costimulatory domain - CD3ζ) on T cells

Kd [1]: 34 nM
Kd [2]: 34 nM
B1: Recombinant human IL13Rα1-Fc chimera (Fc fusion)
chain: GGGGAAPTETQPPVTNLSVSVENLCTVIWTWNPPEGASSNCSLWYFSHFGDKQDKKIAPETRRSIEVPLNERICLQVGSQCSTNESEKPSILVEKCISPPEGDPESAVTELQCIWHNLSYMKCSWLPGRNTSPDTNYTLYYWHRSLEKIHQCENIFREGQYFGCSFDLTKVKDSSFEQHSVQIMVKDNAGKIKPSFNIVPLTSRVKPDPPHIKNLSFHNDDLYVQWENPQNFISRCLFYEVEVNNSQTETHNVFYVQEAKCENPEFERNVENTSCFMVPGVLPDTLNTVRIRVKTNKLCYEDDKLWSNWSQEMSIGKKRNST
modifications: biotin (in the titration of CAR T cells)

Kd [3]: 4.2 nM
Kd [1]: 1.7 nM
Kd [2]: 1.8 nM
Kd [4]: 29 nM
B2: Recombinant human IL13Rα2-Fc chimera (Fc fusion)
chain: DTEIKVNPPQDFEIVDPGYLGYLYLQWQPPLSLDHFKECTVEYELKYRNIGSETWKTIITKNLHYKDGFDLNKGIEAKIHTLLPWQCTNGSEVQSSWAETTYWISPQGIPETKVQDMDCVYYNWQYLLCSWKPGIGVLLDTNYNLFYWYEGLDHALQCVDYIKADGQNIGCRFPYLEASDYKDFYICVNGSSENKPIRSSYFTFQLQNIVKPLPPVYLTFTRESSCEIKLKWSIPLGPIPARCFDYEIEIREDDTTLVTATVENETYTLKTTNETRQLCFVVRSKVNIYCSDDGIWSEWSDKQCWEGEDLSKKTLLR
modifications: biotin (in the titration of CAR T cells)
